Assay results: patent publication US20240261333A1, “NOVEL TARGETS FOR ENHANCING ANTI-TUMOR IMMUNITY” (THE BROAD INSTITUTE, INC., priority 2021, published 2024)

Assays:
TXN = TXN (UniProt P10599); assay: co-IP, IgG control, N-FLAG B3GNT2 cell lysate, mass spectrometry
RPL35 = RPL35 (UniProt P42766); assay: as above
RPS23 = RPS23 (UniProt P62266); assay: as above
RPS2 = RPS2 (UniProt P15880); assay: as above
TMEM59 = TMEM59 (UniProt Q9BXS4); assay: as above
HNRNPU = HNRNPU (UniProt Q00839); assay: as above
RPL37A = RPL37A (UniProt P61513); assay: as above
ITGB3 = ITGB3 (UniProt P05106); assay: as above
Chain of ITGB3 (P05106 27-788 limits assumed): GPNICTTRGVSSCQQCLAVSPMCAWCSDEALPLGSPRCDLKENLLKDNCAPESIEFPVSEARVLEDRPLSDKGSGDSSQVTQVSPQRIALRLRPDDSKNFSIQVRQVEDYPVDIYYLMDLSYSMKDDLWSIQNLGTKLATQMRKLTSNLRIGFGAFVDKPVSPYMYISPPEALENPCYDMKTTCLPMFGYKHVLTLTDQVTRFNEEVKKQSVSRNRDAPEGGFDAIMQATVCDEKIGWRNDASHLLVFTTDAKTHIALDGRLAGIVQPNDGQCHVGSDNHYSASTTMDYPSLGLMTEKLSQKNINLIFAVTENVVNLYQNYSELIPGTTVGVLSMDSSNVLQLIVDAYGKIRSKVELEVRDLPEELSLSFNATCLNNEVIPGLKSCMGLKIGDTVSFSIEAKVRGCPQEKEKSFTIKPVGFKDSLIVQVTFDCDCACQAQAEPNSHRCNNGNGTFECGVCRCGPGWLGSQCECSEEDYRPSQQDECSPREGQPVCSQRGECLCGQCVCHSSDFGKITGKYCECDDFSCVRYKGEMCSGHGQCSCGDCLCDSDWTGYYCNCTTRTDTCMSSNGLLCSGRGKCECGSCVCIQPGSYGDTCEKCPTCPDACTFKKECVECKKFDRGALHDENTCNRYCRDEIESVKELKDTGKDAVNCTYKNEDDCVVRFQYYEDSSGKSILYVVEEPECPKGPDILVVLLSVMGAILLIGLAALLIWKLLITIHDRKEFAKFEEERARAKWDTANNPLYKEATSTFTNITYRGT

CDSN = CDSN (UniProt Q15517); assay: as above
MTDH = MTDH (UniProt Q86UE4); assay: as above
RPS18 = RPS18 (UniProt P62269); assay: as above
RPL19 = RPL19 (UniProt P84098); assay: as above
RPL22 = RPL22 (UniProt P35268); assay: as above
DNAJA2 = DNAJA2 (UniProt O60884); assay: as above
Chain of DNAJA2 (O60884 1-409 limits assumed): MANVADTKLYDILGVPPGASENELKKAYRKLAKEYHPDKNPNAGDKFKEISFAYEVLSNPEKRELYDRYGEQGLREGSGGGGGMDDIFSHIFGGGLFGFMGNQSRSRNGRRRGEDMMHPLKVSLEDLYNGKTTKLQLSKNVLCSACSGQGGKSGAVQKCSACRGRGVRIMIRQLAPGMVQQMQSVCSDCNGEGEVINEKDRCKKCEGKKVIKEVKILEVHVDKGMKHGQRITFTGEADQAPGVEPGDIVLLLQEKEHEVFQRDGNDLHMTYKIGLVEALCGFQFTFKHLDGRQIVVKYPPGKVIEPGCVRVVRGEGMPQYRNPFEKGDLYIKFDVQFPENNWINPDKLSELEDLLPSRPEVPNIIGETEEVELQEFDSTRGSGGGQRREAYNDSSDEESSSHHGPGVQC

LIMA1 = LIMA1 (UniProt Q9UHB6); assay: as above
Chain of LIMA1 (Q9UHB6 other isoform, or with tags, fused parts or gaps limits assumed): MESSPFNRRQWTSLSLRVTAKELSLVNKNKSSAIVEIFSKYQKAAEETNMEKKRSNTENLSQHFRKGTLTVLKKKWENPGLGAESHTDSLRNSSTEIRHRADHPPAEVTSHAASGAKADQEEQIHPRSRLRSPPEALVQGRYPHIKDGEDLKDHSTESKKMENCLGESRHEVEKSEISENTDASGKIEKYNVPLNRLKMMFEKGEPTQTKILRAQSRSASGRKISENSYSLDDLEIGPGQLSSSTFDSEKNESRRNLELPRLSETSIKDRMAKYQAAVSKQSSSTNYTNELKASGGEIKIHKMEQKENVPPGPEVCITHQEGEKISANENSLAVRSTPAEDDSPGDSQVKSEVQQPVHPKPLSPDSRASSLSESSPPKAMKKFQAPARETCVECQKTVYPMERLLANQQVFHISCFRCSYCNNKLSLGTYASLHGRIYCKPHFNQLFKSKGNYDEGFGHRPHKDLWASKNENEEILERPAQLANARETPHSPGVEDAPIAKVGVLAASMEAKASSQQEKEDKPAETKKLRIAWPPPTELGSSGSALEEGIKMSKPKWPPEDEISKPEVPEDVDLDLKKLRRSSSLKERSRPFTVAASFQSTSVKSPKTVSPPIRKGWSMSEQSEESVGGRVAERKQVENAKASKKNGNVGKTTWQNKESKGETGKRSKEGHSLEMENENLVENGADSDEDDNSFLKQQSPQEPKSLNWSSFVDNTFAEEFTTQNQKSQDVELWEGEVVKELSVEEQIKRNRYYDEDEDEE

RPS13 = RPS13 (UniProt P62277); assay: as above
RPS16 = RPS16 (UniProt P62249); assay: as above
EIF4G1 = EIF4G1 (UniProt Q04637); assay: as above
Chain of EIF4G1 (Q04637 41-1599 limits assumed): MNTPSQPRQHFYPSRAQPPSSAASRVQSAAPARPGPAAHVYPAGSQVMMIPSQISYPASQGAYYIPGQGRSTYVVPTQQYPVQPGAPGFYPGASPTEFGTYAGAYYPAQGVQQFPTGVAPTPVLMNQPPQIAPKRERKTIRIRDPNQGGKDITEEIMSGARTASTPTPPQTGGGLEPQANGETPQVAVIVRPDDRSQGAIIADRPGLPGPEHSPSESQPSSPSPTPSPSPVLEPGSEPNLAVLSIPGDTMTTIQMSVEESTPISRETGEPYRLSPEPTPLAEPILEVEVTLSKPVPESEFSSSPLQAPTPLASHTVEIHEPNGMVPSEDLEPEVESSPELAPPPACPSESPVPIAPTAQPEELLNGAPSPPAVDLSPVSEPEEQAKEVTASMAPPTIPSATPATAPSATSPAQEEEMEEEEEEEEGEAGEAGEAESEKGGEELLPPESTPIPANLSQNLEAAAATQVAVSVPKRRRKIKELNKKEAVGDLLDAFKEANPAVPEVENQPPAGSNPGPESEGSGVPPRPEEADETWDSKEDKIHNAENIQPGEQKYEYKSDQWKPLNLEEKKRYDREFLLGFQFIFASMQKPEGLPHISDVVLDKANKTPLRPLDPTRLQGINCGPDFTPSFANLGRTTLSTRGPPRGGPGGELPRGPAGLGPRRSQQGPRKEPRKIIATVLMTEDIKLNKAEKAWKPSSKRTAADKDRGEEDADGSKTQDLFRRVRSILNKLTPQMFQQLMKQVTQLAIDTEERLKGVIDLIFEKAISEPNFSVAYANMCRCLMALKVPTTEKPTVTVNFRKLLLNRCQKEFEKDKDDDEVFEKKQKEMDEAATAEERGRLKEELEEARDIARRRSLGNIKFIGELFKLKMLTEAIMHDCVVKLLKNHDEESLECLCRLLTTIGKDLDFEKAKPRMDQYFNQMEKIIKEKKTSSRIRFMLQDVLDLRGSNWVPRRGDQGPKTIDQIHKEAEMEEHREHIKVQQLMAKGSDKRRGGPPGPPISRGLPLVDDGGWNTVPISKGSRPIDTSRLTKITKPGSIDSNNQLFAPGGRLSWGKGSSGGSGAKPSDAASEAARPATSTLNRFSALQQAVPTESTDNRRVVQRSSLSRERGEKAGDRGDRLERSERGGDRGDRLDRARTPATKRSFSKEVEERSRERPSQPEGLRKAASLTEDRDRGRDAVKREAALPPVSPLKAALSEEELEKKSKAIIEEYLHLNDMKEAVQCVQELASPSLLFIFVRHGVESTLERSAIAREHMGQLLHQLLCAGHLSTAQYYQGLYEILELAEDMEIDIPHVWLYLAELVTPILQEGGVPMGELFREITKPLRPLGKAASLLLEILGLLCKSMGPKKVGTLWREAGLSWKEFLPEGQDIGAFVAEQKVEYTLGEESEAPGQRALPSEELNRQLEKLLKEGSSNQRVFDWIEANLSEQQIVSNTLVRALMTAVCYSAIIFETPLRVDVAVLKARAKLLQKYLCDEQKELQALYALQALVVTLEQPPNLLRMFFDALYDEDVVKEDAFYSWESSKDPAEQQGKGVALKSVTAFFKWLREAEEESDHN

RPL5 = RPL5 (UniProt P46777); assay: as above
ARG1 = ARG1 (UniProt P05089); assay: as above
Chain of ARG1 (P05089 whole entry): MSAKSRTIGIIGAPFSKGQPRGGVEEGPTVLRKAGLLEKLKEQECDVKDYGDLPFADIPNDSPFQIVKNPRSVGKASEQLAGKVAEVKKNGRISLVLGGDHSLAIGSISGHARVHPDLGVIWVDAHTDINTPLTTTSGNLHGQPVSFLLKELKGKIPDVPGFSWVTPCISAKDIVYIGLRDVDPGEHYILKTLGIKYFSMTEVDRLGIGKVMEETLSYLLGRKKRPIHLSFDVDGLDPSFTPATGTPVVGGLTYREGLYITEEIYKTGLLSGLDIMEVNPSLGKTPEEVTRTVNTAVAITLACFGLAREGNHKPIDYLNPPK

SRSF1 = SRSF1 (UniProt Q07955); assay: as above
HSPB1 = HSPB1 (UniProt P04792); assay: as above
Chain of HSPB1 (P04792 whole entry): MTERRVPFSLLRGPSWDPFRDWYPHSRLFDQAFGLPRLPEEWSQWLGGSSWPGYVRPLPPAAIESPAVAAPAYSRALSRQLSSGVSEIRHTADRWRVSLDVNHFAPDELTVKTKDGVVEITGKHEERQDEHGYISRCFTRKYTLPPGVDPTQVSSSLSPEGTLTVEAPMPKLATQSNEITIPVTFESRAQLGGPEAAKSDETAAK

TNKS1BP1 = TNKS1BP1 (UniProt Q9C0C2); assay: as above
DEFA3 = DEFA3 (UniProt P59666); assay: as above
Chain of DEFA3 (P59666 65-94 limits assumed): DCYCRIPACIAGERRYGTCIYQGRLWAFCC

CFL1 = CFL1 (UniProt P23528); assay: as above
Chain of CFL1 (P23528 2-166 limits assumed): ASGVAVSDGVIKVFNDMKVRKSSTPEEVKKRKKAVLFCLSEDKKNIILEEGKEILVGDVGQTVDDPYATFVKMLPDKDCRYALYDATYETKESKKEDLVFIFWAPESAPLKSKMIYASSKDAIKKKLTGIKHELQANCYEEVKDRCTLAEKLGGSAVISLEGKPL

RPS19 = RPS19 (UniProt P39019); assay: as above
RPL3 = RPL3 (UniProt P39023); assay: as above
MTCH2 = MTCH2 (UniProt Q9Y6C9); assay: as above
PBXIP1 = PBXIP1 (UniProt Q96AQ6); assay: as above
DDX20 = DDX20 (UniProt Q9UHI6); assay: as above
SRSF3 = SRSF3 (UniProt P84103); assay: as above
TAGLN = TAGLN (UniProt Q01995); assay: as above
SSRP1 = SSRP1 (UniProt Q08945); assay: as above
PSMA7 = PSMA7 (UniProt O14818); assay: as above
Chain of PSMA7 (O14818 whole entry): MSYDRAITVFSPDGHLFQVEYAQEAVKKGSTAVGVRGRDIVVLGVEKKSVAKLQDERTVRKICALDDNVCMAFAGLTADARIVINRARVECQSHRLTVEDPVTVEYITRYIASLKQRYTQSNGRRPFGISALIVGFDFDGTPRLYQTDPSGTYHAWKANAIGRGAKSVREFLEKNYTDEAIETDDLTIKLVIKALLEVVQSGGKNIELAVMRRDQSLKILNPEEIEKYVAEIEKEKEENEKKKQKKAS

EMD = EMD (UniProt P50402); assay: as above
Chain of EMD (P50402 whole entry): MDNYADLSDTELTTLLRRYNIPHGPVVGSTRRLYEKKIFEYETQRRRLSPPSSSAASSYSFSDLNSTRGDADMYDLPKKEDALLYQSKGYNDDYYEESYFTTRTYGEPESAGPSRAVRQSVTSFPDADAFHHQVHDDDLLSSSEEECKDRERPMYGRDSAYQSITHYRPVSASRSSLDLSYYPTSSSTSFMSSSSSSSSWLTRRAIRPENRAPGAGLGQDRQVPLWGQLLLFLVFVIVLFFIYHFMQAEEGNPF

RPL15 (human) = RPL15 (human) (UniProt P61313); assay: anti-FLAG co-IP from lysate of N-FLAG B3GNT2 cells, mass spectrometry
PSMC2 (human) = PSMC2 (human) (UniProt P35998); assay: as above
TUBA1C (human) = TUBA1C (human) (UniProt Q9BQE3); assay: as above
PXN (human) = PXN (human) (UniProt P49023); assay: as above
STAU1 (human) = STAU1 (human) (UniProt O95793); assay: as above

Measured: co-IP mass spectrometry count

Chain of TXN (P10599 2-105 limits assumed): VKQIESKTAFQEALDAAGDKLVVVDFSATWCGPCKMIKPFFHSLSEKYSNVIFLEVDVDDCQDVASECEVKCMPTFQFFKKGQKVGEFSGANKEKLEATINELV

IgG control (Millipore Sigma 12-371) (antibody)
2: RPL35 | HNRNPU | RPL19 | RPS13 | EIF4G1
5: SRSF1 | RPS19
10: RPS2 | RPS16
3: TXN | LIMA1 | DEFA3 | CFL1 | RPL3
4: RPL37A | ARG1 | HSPB1 | TNKS1BP1 | SRSF3
6: RPS23
11: RPS18
not listed: RPL15 (human) | PSMC2 (human) | TUBA1C (human) | PXN (human) | STAU1 (human)
0: all other assays above

N-terminal FLAG tagged B3GNT2 (from UniProt Q9NY97 1-397) (enzyme)
2: PSMC2 (human) | PXN (human) | STAU1 (human)
6: RPL15 (human)
76: TUBA1C (human)
